This assay deals with Actin filaments decorated with Tpm3.1 (chicken | human) (UniProt P68139).

Chain of Mouse melanophilin with N-terminal SNAP tag and C-terminal Flag tag (Q91V27 whole entry): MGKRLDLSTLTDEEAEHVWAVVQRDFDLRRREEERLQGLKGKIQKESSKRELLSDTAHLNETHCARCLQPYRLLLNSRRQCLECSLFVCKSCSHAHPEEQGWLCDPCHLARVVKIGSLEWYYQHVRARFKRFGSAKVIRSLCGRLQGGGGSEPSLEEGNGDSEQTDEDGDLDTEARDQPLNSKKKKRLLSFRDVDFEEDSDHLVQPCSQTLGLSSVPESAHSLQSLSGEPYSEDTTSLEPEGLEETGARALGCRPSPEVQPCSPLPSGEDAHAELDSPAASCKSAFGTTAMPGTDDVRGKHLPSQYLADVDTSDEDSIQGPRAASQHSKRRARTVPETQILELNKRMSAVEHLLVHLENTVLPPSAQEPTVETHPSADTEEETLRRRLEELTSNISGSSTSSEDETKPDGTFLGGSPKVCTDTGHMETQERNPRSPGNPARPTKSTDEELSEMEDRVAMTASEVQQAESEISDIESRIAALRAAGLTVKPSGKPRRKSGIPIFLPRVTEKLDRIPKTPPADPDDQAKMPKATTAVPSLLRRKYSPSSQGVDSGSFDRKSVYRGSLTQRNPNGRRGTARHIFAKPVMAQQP

In turn, “Mouse melanophilin with N-terminal SNAP tag and C-terminal Flag tag (from UniProt Q91V27 1-590) (natural protein)” came in with a fold affinity against actin–Tpm1.8 and actin–Tpm4.2 of 2 fold.

The record behind these values is PMC5042576.
